In assay [1] the target is T1, His6-SUMO-K-Ras WT (human, UniProt P01116-2 1-166). The assay can be described thus: FACS; GDP-loaded. (In flow cytometry, cells or beads pass a laser one at a time.)
Assay [2] deals with T1, His6-SUMO-K-Ras WT. Nature of the assay: FACS; GppNHp-loaded.
Assay [3] concerns the target K-Ras WT (G domain, residues 1-166) (human, UniProt P01116-2 1-166, biotinylated for BLI (site not stated)). Nature of the assay: BLI; GppNHp-loaded. For orientation: Biolayer interferometry detects binding as a change in optical thickness at a sensor tip.
For assay [4], the target named is H-Ras WT (G domain, residues 1-166) (UniProt P01112 1-166, biotinylated for BLI (site not stated)). Nature of the assay: BLI; GppNHp-loaded.
Assay [5] has as its target N-Ras WT (G domain, residues 1-166) (UniProt P01111 1-166, biotinylated for BLI (site not stated)). Nature of the assay: BLI; GppNHp-loaded.

B1: R11.1.6 expressed on the surface of yeast (designed binder)
chain: ATVKFTHQGEEKQVDISKIKWVIRWGQYIWFKYDEDGGAKGWGYVSEKDAPKELLQMLKKR
A word on the Kd: it is the free concentration of one partner at which half of the binding sites on the other are occupied at equilibrium, for simple one-to-one binding. Higher therefore signals a looser complex. As to B1, the dissociation constant (Kd) with His6-SUMO-K-Ras WT [1] turned out to be 2.8 nM; in the assay with His6-SUMO-K-Ras WT [2] it was 50.3 nM.

B2: SUMO-R11.1.6 fusion protein (designed binder)
chain: ATVKFTHQGEEKQVDISKIKWVIRWGQYIWFKYDEDGGAKGWGYVSEKDAPKELLQMLKKR
For B2, the results for the equilibrium dissociation constant (Kd) in assay [3], in assay [4] and in assay [5] were 41 nM, 10 nM and 7 nM, respectively.
